{"source": "patent US20110262471A1", "about": "(ONCOTHERAPY SCIENCE, published 2011)", "data": [{"target": "T1, human beta 2m-HLA-A2.1 (alpha 1, alpha 2)-H-2 Db (alpha 3 transmembrane cytoplasmic; HHD) monochain (human; mouse, UniProt P61769 21-119; P01899 207-362)", "T1 chain (looked up)": "not shown", "experiment": "cell-based or functional assay", "units": {"IFN-gamma ELISPOT of CD4- spleen cells of immunized HLA-A2.1 (HHD) Tgm, in response to BM-DCs pulsed with the peptide": "spot counts/well"}, "values": [{"binder": "LLSDDDVVV", "note": "[RAB6KIFL-A2-9-12 peptide]", "IFN-gamma ELISPOT of CD4- spleen cells of immunized HLA-A2.1 (HHD) Tgm, in response to BM-DCs pulsed with the peptide": 149}, {"binder": "CIAEQYHTV", "note": "[RAB6KIFL-A2-9-809 peptide]", "IFN-gamma ELISPOT of CD4- spleen cells of immunized HLA-A2.1 (HHD) Tgm, in response to BM-DCs pulsed with the peptide": 117}, {"binder": "AQPDTAPLPV", "note": "[RAB6KIFL-A2-10-284 peptide]", "IFN-gamma ELISPOT of CD4- spleen cells of immunized HLA-A2.1 (HHD) Tgm, in response to BM-DCs pulsed with the peptide": 141}]}]}
